Laboratory results published in patent US20250277023A1 (published 2025).
Substitutions are numbered along the chain they refer to. One block for each binder: values may come before it.

Key:
IL15R = test: FACS binding; Fig. 29
[1] = target: T1, PD-L1 (on CHO-PD-L1 cells) (UniProt Q9NZQ7 19-290); test: FACS binding; Fig. 23
[2] = target: T1, PD-L1 (on CHO-PD-L1 cells); test: FACS binding; Fig. 21
[3] = target: T1, PD-L1 (on CHO-PD-L1 cells); test: FACS binding; Fig. 22
[4] = target: T2, TIGIT (on CHO-TIGIT cells) (UniProt Q495A1 22-244); test: FACS binding; Fig. 17
T2 chain: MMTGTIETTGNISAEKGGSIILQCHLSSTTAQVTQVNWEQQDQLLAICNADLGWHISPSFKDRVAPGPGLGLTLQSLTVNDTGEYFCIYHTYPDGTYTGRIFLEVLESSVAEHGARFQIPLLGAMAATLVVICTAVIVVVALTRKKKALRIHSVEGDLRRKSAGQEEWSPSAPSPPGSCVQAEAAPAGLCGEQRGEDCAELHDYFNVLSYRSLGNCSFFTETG

[5] = target: T2, TIGIT (on CHO-TIGIT cells); test: FACS binding; Fig. 20
[6] = target: T2, TIGIT (on CHO-TIGIT cells); test: FACS blocking of PVR binding to CHO-Tigit; Fig. 27
[7] = target: T1, PD-L1 (on CHO-PD-L1 cells); test: FACS binding; Fig. 26

T1 sequence (Q9NZQ7 19-290): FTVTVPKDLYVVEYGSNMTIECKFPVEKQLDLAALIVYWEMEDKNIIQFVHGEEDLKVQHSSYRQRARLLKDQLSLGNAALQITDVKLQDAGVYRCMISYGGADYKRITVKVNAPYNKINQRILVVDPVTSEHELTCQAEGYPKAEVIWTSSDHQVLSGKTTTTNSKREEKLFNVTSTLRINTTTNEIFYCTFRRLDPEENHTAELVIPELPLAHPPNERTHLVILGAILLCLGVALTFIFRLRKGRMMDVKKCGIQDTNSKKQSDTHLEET

B2: R0950: PD-L1_VH_IL15RA/PD-L1_VL_IL15/TIGIT-Fab (bispecific antibody)
chain 1: EVQLLESGGGLVQPGGSLRLSCAASGFTFSSYIMMWVRQAPGKGLEWVSSIYPSGGITFYADTVKGRFTISRDNSKNTLYLQMNSLRAEDTAVYYCARIKLGTVTTVDYWGQGTLVTVSSGGGGSGGGGSGGGGSGGGGSGITCPPPMSVEHADIWVKSYSLYSRERYICNSGFKRKAGTSSLTECVLNKATNVAHWTTPSLKCIRDPALVHQRPAPPSTVTTAGVTPQPESLSPSGKEPAASSPSSNNTAATTAAIVPGSQLMPSKSPSTGTTEISSHESSHGTPSQTTAKNWELTASASHQPPGVYPQGHSDTTEPRGPTIKPCPPCKCPAPNLLGGPSVFIFPPKIKDVLMISLSPIVTCVVVDVSEDDPDVQISWFVNNVEVHTAQTQTHREDYNSTLRVVSALPIQHQDWMSGKEFKCKVNNKDLPAPIERTISKPKGSVRAPQVYVLPPPEEEMTKKQVTLWCMVTDFMPEDIYVEWTNNGKTELNYDNTEPVLDSDGSYFMYSDLRVEKKNWVERNSYSCSVVHEGLHNHHTTKSFSRTPGK
chain 2: not shown
heavy: QVQLESEGGLFKPTDTLTLTCTVSGSSLSSSYMSWVRQAPGKGLEWIGIIGSNGNTYYANWAKGRFTISKTSTTVELKITSPTTEDTATYFCARGGYRTSGMDPWGPGTLVTVSSAKTTAPSVYPLAPVCGDTTGSSVTLGCLVKGYFPEPVTLTWNSGSLSSGVHTFPAVLQSDLYTLSSSVTVTSSTWPSQSITCNVAHPASSTKVDKKIEPRGPTIKPCPPCKCPAPNLLGGPSVFIFPPKIKDVLMISLSPIVTCVVVDVSEDDPDVQISWFVNNVEVHTAQTQTHREDYNSTLRVVSALPIQHQDWMSGKEFKCKVNNKDLPAPIERTISKPKGSVRAPQVYVLPPPEEEMTKKQVTLTCRVTDFMPEDIYVEWTNNGKTELNYKNTEPVLKSDGSYFMASKLRVEKKNWVERNSYSCSVVHEGLHNHHTTKSFSRTPGK
light: DIVMTQTPASVEVAVGGTVTIKCQASQSISSYLNWYQQKPGQPPKLLIYDALKLASGVPSRFSGSGSGTEYTLTISGVESADAATYYCQQEHSVGNVDNVFGGGTEVVVKRTDAAPTVSIFPPSSEQLTSGGASVVCFLNNFYPKDINVKWKIDGSERQNGVLNSWTDQDSKDSTYSMSSTLTLTKDEYERHNSYTCEATHKTSTSPIVKSFNRNEC
- EC50 [1]: 0.903 nM
- EC50 [2]: 0.571 nM

B3: R1042: PD-L1_VH_IL15RA/TIGIT_VL_IL15/TIGIT_VH/PD-L1-VL (bispecific antibody)
chain 1: B2 chain 1
chain 2: not shown
heavy: B2 heavy
light: QSALTQPASVSGSPGQSITISCTGTSSDVGGYNYVSWYQQHPGKAPKLMIYDVSNRPSGVSNRFSGSKSGNTASLTISGLQAEDEADYYCSSYTSSSTRVFGTGTKVTVLRTDAAPTVSIFPPSSEQLTSGGASVVCFLNNFYPKDINVKWKIDGSERQNGVLNSWTDQDSKDSTYSMSSTLTLTKDEYERHNSYTCEATHKTSTSPIVKSFNRNEC
- EC50 [1]: 7.29 nM

B4: R1042 (bispecific antibody)
chain 1: B2 chain 1
chain 2: not shown
heavy: B2 heavy
light: B3 light
- EC50 (IL15R): 0.862 nM

More lines, now with the values ahead:

- EC50 (IL15R): 1.07 nM
B1: R1043 (bispecific antibody)
chain 1: QVQLESEGGLFKPTDTLTLTCTVSGSSLSSSYMSWVRQAPGKGLEWIGIIGSNGNTYYANWAKGRFTISKTSTTVELKITSPTTEDTATYFCARGGYRTSGMDPWGPGTLVTVSSGGGGSGGGGSGGGGSGGGGSGITCPPPMSVEHADIWVKSYSLYSRERYICNSGFKRKAGTSSLTECVLNKATNVAHWTTPSLKCIRDPALVHQRPAPPSTVTTAGVTPQPESLSPSGKEPAASSPSSNNTAATTAAIVPGSQLMPSKSPSTGTTEISSHESSHGTPSQTTAKNWELTASASHQPPGVYPQGHSDTTEPRGPTIKPCPPCKCPAPNLLGGPSVFIFPPKIKDVLMISLSPIVTCVVVDVSEDDPDVQISWFVNNVEVHTAQTQTHREDYNSTLRVVSALPIQHQDWMSGKEFKCKVNNKDLPAPIERTISKPKGSVRAPQVYVLPPPEEEMTKKQVTLWCMVTDFMPEDIYVEWTNNGKTELNYDNTEPVLDSDGSYFMYSDLRVEKKNWVERNSYSCSVVHEGLHNHHTTKSFSRTPGK
chain 2: not shown
heavy: EVQLLESGGGLVQPGGSLRLSCAASGFTFSSYIMMWVRQAPGKGLEWVSSIYPSGGITFYADTVKGRFTISRDNSKNTLYLQMNSLRAEDTAVYYCARIKLGTVTTVDYWGQGTLVTVSSAKTTAPSVYPLAPVCGDTTGSSVTLGCLVKGYFPEPVTLTWNSGSLSSGVHTFPAVLQSDLYTLSSSVTVTSSTWPSQSITCNVAHPASSTKVDKKIEPRGPTIKPCPPCKCPAPNLLGGPSVFIFPPKIKDVLMISLSPIVTCVVVDVSEDDPDVQISWFVNNVEVHTAQTQTHREDYNSTLRVVSALPIQHQDWMSGKEFKCKVNNKDLPAPIERTISKPKGSVRAPQVYVLPPPEEEMTKKQVTLTCRVTDFMPEDIYVEWTNNGKTELNYKNTEPVLKSDGSYFMASKLRVEKKNWVERNSYSCSVVHEGLHNHHTTKSFSRTPGK
light: B2 light

- EC50 [3]: 5.22 nM
- EC50 [4]: 2.89 nM
B5: R1123: TIGIT_VH_IL21R/TIGIT_VL_IL21/PD-L1-Fab (bispecific antibody)
chain 1: not shown
chain 2: not shown
heavy: EVQLQESGPGLVKPSETLSLTCAVYGDSITSGYWNWIRKPPGKGLEYMGYISYTGSTYQNPSLKSRITFSRDTSKNQYYLKLSSVTAADTATYYCARSRAWIRTYFDYWGQGTLVTVSSASTKGPSVFPLAPSSKSTSGGTAALGCLVKDYFPEPVTVSWNSGALTSGVHTFPAVLQSSGLYSLSSVVTVPSSSLGTQTYICNVNHKPSNTKVDKRVEPKSCDKTHTCPPCPAPELLGGPSVFLFPPKPKDTLMISRTPEVTCVVVDVSHEDPEVKFNWYVDGVEVHNAKTKPREEQYNSTYRVVSVLTVLHQDWLNGKEYKCKVSNKALPAPIEKTISKAKGQPREPQVYTLPPSREEMTKNQVSLWCLVKGFYPSDIAVEWESNGQPENNYDTTPPVLDSDGSFFLYSDLTVDKSRWQQGNVFSCSVMHEALHNHYTQKSLSLSPGK
light: EIVLTQSPDFQSVTPKEKVTITCSVSSSISSSNLHWYQQKPDQSPKLLIYGTSNLASGVPSRFSGSGSGTDFTLTINSLEAEDAATYYCQQWSSYPLTFGQGTKLEIKRTVAAPSVFIFPPSDEQLKSGTASVVCLLNNFYPREAKVQWKVDNALQSGNSQESVTEQDSKDSTYSLSSTLTLSKADYEKHKVYACEVTHQGLSSPVTKSFNRGEC

- EC50 [5]: 15.7 nM
- EC50 [3]: 3.72 nM
- EC50 [6]: 336 nM
- EC50 [7]: 3.11 nM
B6: R1115: TIGIT_VH_IL2RA/TIGIT_VL_IL2/PD-L1-Fab (bispecific antibody)
chain 1: QVQLVQSGAEVKKPGSSVKVSCKASGYSFTSYWMNWVRQAPGQGLEWIGMIRPSDSETRLNQMFKDRVTITVDKSTSTAYMELSSLRSEDTAVYYCAGIHDYGHGAYWGQGTLVTVSSGGGGSGGGGSGGGGSGGGGSGELCDDDPPEIPHATFKAMAYKEGTMLNCECKRGFRRIKSGSLYMLCTGNSSHSSWDNQCQCTSSATRNTTKQVTPQPEEQKERKTTEMQSPMQPVDQASLPGHCREPPPWENEATERIYHFVVGQMVYYQCVQGYRALHRGPAESVCKMTHGKTRWTQPQLICTGEPKSSDKTHTCPPCPAPELLGGPSVFLFPPKPKDTLMISRTPEVTCVVVDVSHEDPEVKFNWYVDGVEVHNAKTKPREEQYNSTYRVVSVLTVLHQDWLNGKEYKCKVSNKALPAPIEKTISKAKGQPREPQVYTLPPSREEMTKNQVSLTCRVKGFYPSDIAVEWESNGQPENNYKTTPPVLKSDGSFFLASKLTVDKSRWQQGNVFSCSVMHEALHNHYTQKSLSLSPGK
chain 2: not shown
heavy: B5 heavy
light: B5 light

- EC50 [5]: 11.3 nM
- EC50 [6]: 50.4 nM
- EC50 [7]: 2.64 nM
B7: R1262: TIGIT VH-IL2Rα mutant-Fc/TIGIT VL-IL2 mutant/PD-L1_VH-hIgG1/PD-L1 VL-κ-Ig LC (bispecific antibody)
chain 1: B6 chain 1 with S138C
chain 2: not shown
heavy: B5 heavy
light: B5 light
